Biological target: Recombinant human ACE2 protein (carrier free) (human, UniProt Q9BYF1)
Experiment: zeta potential

Sequence of Recombinant human ACE2 protein (carrier free) (Q9BYF1 18-740): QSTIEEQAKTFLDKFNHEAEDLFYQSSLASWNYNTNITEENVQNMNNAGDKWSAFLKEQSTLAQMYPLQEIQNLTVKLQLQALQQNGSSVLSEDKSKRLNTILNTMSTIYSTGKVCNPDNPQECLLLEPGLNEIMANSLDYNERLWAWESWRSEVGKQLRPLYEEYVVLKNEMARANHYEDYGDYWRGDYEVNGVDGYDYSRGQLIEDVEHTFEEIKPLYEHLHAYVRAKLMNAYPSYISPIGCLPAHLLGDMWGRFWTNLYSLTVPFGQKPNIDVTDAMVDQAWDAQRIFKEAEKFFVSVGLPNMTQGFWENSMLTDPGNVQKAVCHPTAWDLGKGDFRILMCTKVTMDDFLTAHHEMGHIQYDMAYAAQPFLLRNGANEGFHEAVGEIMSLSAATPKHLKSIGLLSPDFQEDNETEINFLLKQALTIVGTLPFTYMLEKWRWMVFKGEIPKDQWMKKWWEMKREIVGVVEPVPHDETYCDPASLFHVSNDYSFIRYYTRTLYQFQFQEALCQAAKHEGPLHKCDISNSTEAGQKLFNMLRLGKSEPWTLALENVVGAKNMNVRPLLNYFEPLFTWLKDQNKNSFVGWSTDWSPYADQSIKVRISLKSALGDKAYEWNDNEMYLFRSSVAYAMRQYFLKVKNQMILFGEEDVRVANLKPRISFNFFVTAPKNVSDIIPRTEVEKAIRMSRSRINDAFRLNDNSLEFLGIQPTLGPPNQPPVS

Binder: VVVGKKGGGDYSHCSPLRYYPWWKCTYPDPEGGG [ACE2-binding Ligand peptide amphiphile (C12-VVVGKK-OEG4-GG-DX600)]
- binding result: binds

Reference: publication PMC9743467 (Matter, 2022)
